# According to publication PMC2965030 (2009):
# Target: t-PA (Homo sapiens, UniProt P00750)
# Experiment: SPR
# Sequence of t-PA (P00750 36-562): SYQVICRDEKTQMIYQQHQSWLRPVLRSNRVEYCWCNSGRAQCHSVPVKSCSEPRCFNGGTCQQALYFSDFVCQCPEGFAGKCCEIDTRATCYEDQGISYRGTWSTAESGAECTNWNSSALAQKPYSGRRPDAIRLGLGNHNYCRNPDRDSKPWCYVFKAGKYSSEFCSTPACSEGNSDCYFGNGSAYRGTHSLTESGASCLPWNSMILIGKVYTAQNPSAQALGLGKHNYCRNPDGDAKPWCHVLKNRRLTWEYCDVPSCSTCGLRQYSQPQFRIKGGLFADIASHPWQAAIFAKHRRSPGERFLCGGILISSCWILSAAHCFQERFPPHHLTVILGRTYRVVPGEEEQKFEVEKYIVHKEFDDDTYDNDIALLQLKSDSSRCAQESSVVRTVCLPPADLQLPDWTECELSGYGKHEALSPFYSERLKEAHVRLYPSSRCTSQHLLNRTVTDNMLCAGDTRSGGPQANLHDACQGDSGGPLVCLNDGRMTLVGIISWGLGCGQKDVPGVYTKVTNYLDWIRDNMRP
binder,measurement,value
β2-glycoprotein I (protein) GRTCPKPDDLPFSTVVPLKTFYEPGEEITYSCKPGYVSRGGMRKFICPLTGLWPINTLKCTPRVCPFAGILENGAVRYTTFEYPNTISFSCNTGFYLNGADSAKCTEEGKWSPELPVCAPIICPPPSIPTFATLRVYKPSAGNNSLYRDTAVFECLPQHAMFGNDTITCTTHGNWTKLPECREVKCPFPSRPDNGFVNYPAKPTLYYKDKATFGCHDGYSLDGPEEIECTKLGNWSAMPSCKASCKVPVKKATVVYQGERVKIQEKFKNGMLHGDKVSFFCKNKEKKCSYTEDAQCIDGTIEVPKCFKEHSSLAFWKTDASDVKPC,Kd,20 nM
